Assay results: US20250375530A1 (ALMAC DISCOVERY, published 2025)
Numbering of substitutions follows the chain as printed. Values belong to the binder of their own block, whether it stands above or below them.

Assays:
human ROR1-Fc (CHO) [1] = target: T1, human ROR1-Fc (CHO) (human); experiment: ELISA, plate coated with human ROR1-hFc, HisMyc-tagged VNAR at a single 5 ug/mL, Abs 450 nm; no blank bar shown
T1 construct: also called hROR1-Fc; huROR1-Fc

mouse ROR1-Fc (CHO) = target: T2, mouse ROR1-Fc (CHO) (mouse); experiment: ELISA, mROR1-hFc coated
T2 construct: also called mROR1-hFc; mROR1

human ROR1-Fc (CHO) [2] = target: T1, human ROR1-Fc (CHO); experiment: ELISA dose response, plate coated with hROR1-Fc, HisMyc-tagged VNAR 0-5 ug/mL (linear axis), Abs 450 nm
human ROR1-Fc (CHO) [3] = target: T1, human ROR1-Fc (CHO); experiment: BLI, hROR1; MMAE conjugate

T1 sequence (chain, as listed by the source limits assumed): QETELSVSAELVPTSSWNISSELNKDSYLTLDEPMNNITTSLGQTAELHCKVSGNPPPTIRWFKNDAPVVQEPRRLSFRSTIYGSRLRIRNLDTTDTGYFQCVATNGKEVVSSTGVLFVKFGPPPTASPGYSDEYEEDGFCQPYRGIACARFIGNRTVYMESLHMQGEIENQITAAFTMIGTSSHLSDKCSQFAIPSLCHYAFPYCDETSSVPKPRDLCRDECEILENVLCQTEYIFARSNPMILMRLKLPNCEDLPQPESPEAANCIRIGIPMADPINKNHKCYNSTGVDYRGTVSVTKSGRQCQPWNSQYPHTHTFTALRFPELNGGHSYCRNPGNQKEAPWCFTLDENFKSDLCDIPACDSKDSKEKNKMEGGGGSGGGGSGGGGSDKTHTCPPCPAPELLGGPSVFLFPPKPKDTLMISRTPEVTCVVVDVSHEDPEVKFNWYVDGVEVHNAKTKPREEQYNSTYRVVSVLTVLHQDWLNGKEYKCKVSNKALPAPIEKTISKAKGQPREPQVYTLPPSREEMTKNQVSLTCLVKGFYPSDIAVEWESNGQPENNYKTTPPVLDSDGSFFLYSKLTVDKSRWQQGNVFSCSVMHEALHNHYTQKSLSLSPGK
T2 sequence (chain, as listed by the source limits assumed): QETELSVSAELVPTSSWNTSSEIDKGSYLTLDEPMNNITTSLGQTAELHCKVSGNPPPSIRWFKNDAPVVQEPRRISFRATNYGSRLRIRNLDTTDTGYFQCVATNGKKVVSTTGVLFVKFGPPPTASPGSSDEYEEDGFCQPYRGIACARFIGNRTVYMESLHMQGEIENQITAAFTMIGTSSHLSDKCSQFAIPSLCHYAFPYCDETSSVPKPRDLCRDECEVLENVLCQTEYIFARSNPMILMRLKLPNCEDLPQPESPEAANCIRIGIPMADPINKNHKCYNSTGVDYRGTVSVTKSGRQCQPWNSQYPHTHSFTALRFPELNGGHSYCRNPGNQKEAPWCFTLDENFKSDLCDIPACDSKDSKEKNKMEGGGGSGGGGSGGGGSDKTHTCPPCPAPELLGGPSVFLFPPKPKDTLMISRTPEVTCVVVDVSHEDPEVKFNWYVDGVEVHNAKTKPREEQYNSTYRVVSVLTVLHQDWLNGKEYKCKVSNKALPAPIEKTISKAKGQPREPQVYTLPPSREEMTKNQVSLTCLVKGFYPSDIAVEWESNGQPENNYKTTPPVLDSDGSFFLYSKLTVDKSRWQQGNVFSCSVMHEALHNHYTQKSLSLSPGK

B1: P3A1 G1 AE3.S (VNAR)
VNAR: TRVDQSPSSLSASVGDRVTITCVLTGTRYGLYSSTYWYRKNPGSSDEERISISGRYSESVNKGTKSFTLTISSLQPEDSATYYCRAREARHPWLRQWYDGAGTKVEIKQ
notes: VNAR; entry includes the HisMyc tag
binding result (human ROR1-Fc (CHO) [1]): binds
binding result (mouse ROR1-Fc (CHO)): binds

B5: G3CP G4-P3A1G1AE3 MA-vc-PAB-MMAE conjugate (Cys linker) (VNAR, not shown: small tags and cut ends)
chain: TRVDQSPSSLSASVGDRVTITCVLTDANYGLAATYWYRKNPGSSNKERISISGRYSESVNKGTMSFTLTISSLQPEDSATYYCRAYPWGAGAPYNVQWYDGAGTKVEIKPGVQPCPGGGGGSTRVDQSPSSLSASVGDRVTITCVLTGTRYGLYSTYWYRKNPGSSDEERISISGRYSESVNKGTKSFTLTISSLQPEDSATYYCRAREARHPWLRQWYDGAGTKVEIK
modifications: MA-vc-PAB-MMAE on the single cysteine of the linker PGVQPCPGGGGGS
notes: DAR 1.0
Kd (human ROR1-Fc (CHO) [3]): 0.76 nM

Now from value to binder:

binding result (human ROR1-Fc (CHO) [2]): binds
B2: P3A1 G1 AF7.S (VNAR)
VNAR: B1 VNAR with R28K, S33A, S45T, E47K, S51I, S53G, K62N, G63R, T64S
notes: as for B1

binding result (human ROR1-Fc (CHO) [2]): binds
B3: P3A1 G1 NAG8.S (VNAR)
VNAR: B1 VNAR with R28K, S33A, S45P, D46N, E47K, E48D, I50M, S51I, S53G, K62N
notes: as for B1

binding result (human ROR1-Fc (CHO) [1]): binds
binding result (mouse ROR1-Fc (CHO)): binds
B4: P3A1 G1 NAC6.S (VNAR)
VNAR: B1 VNAR with G26D, G30A, S45T, S53G, T64S
notes: as for B1
